Results published in patent US20230073034A1 (APRILBIO, published 2023).

B1: APB-B1a, (anti-CD40L scFv)2-(anti-HSA SL335 Fab)-(anti-TNF-α Fv) (bispecific antibody)
chain 1: DIVLTQSPATLSVSPGERATISCRASQRVSSSTYSYMHWYQQKPGQPPKLLIKYASNLESGVPARFSGSGSGTDFTLTISSVEPEDFATYYCQHSWEIPPTFGGGTKLEIKRGGGGSGGGGSGGGGSQVQLVQSGAEVVKPGASVKLSCKASGYIFTSYYMYWVKQAPGQGLEWIGEINPSNGDTNFNEKFKSKATLTVDKSASTAYMELSSLRSEDTAVYYCTRSDGRNDMDSWGQGTLVTVSSGGGGSGGGGSGGGGSQVQLVQSGGGPVKPGGSLRLSCAASGFMFRAYSMNWVRQAPGKGLEWVSSISSSGRYIHYADSVKGRFTISRDNAKNSLYLQMNSLRAEDTAVYYCARETVMAGKALDYWGQGTLVTVSSASTKGPSVFPLAPSSKSTSEGTAALGCLVKDYFPEPVTVSWNSGALTSGVHTFPAVLQSSGLYSLSSVVTVPSSSLGTQTYICNVNHKPSNTKVDKKVEPKSSGGGGSGGGGSGGGGSEVQLVESGGGLVQPGGSLRLSCAASGYVFTDYGMNWVRQAPGKGLEWMGWINTYIGEPIYADSVKGRFTFSLDTSKSTAYLQMNSLRAEDTAVYYCARGYRSYAMDYWGQGTLVTVSS
chain 2: DIVLTQSPATLSVSPGERATISCRASQRVSSSTYSYMHWYQQKPGQPPKLLIKYASNLESGVPARFSGSGSGTDFTLTISSVEPEDFATYYCQHSWEIPPTFGGGTKLEIKRGGGGSGGGGSGGGGSQVQLVQSGAEVVKPGASVKLSCKASGYIFTSYYMYWVKQAPGQGLEWIGEINPSNGDTNFNEKFKSKATLTVDKSASTAYMELSSLRSEDTAVYYCTRSDGRNDMDSWGQGTLVTVSSGSTSGSGKPGSGEGSTKGDIVLTQSPGTLSLSPGETATLSCRASQSVGSNLAWYQQKPGQAPRLLIYGASTGATGVPARFSGSRSGTDFTLTITSLQPEDFATYYCQQYYSFLAKTFGQGTQLEIKRTVAAPSVFIFPPSDEQLKSGTASVVCLLNNFYPREAKVQWKVDNALQSGNSQESVTEQDSKDSTYSLSNTLTLSKADYEKHKVYACEVTHQGLSSPVTKSFNRGESGSTSGSGKPGSGEGSTKGDIQMTQSPSSLSASVGDRVTITCKASQNVGTNVAWYQQKPGKAPKALIYSASFLYSGVPYRFSGSGSGTDFTLTISSLQPEDFATYYCQQYNIYPLTFGQGTKVEIKR
B2: APB-A1, (anti-CD40L hu5c8 scFv)2-anti-HSA SL335 Fab (bispecific antibody)
heavy: DIVLTQSPATLSVSPGERATISCRASQRVSSSTYSYMHWYQQKPGQPPKLLIKYASNLESGVPARFSGSGSGTDFTLTISSVEPEDFATYYCQHSWEIPPTFGGGTKLEIKRGGGGSGGGGSGGGGSQVQLVQSGAEVVKPGASVKLSCKASGYIFTSYYMYWVKQAPGQGLEWIGEINPSNGDTNFNEKFKSKATLTVDKSASTAYMELSSLRSEDTAVYYCTRSDGRNDMDSWGQGTLVTVSSGGGGSGGGGSGGGGSQVQLVQSGGGPVKPGGSLRLSCAASGFMFRAYSMNWVRQAPGKGLEWVSSISSSGRYIHYADSVKGRFTISRDNAKNSLYLQMNSLRAEDTAVYYCARETVMAGKALDYWGQGTLVTVSSASTKGPSVFPLAPSSKSTSEGTAALGCLVKDYFPEPVTVSWNSGALTSGVHTFPAVLQSSGLYSLSSVVTVPSSSLGTQTYICNVNHKPSNTKVDKKVEPKSS
light: DIVLTQSPATLSVSPGERATISCRASQRVSSSTYSYMHWYQQKPGQPPKLLIKYASNLESGVPARFSGSGSGTDFTLTISSVEPEDFATYYCQHSWEIPPTFGGGTKLEIKRGGGGSGGGGSGGGGSQVQLVQSGAEVVKPGASVKLSCKASGYIFTSYYMYWVKQAPGQGLEWIGEINPSNGDTNFNEKFKSKATLTVDKSASTAYMELSSLRSEDTAVYYCTRSDGRNDMDSWGQGTLVTVSSGSTSGSGKPGSGEGSTKGDIVLTQSPGTLSLSPGETATLSCRASQSVGSNLAWYQQKPGQAPRLLIYGASTGATGVPARFSGSRSGTDFTLTITSLQPEDFATYYCQQYYSFLAKTFGQGTQLEIKRTVAAPSVFIFPPSDEQLKSGTASVVCLLNNFYPREAKVQWKVDNALQSGNSQESVTEQDSKDSTYSLSNTLTLSKADYEKHKVYACEVTHQGLSSPVTKSFNRGES
notes: No Fc; also called (anti-hu5c8 scFv)2-SL335; (anti-CD40L scFv)2-anti-HSA Fab
B3: SL335 Fab (anti-human serum albumin Fab) (Fab, V domains shown)
VH: QVQLVQSGGGPVKPGGSLRLSCAASGFMFRAYSMNWVRQAPGKGLEWVSSISSSGRYIHYADSVKGRFTISRDNAKNSLYLQMNSLRAEDTAVYYCARETVMAGKALDYWGQGTLVTVSS
VL: DIVLTQSPGTLSLSPGETATLSCRASQSVGSNLAWYQQKPGQAPRLLIYGASTGATGVPARFSGSRSGTDFTLTITSLQPEDFATYYCQQYYSFLAKTFGQGTQLEIKR
notes: also called anti-HSA Fab (SL335)

Legend:
[1] = target: T1, recombinant human TNF-α protein (human, UniProt P01375 77-233); assay: ELISA, recombinant human TNF-α coated at 1 µg/ml, HRP goat anti-human Fd detection
T1 construct: also called soluble TNF-α; recombinant soluble TNF-α protein
Protocol: After washing in the same manner as described above, HRP-conjugated goat anti-human Fd antibodies (Southern Biotechnology, Birmingham, Ala.) were diluted with a 0.3% PBA buffer in 1:4,000, and each 100 μl of the diluted antibody samples were added to each well to then be allowed to react at room temperature for 1 hour. To assess antigen-specific binding of the antibodies reacting after the washing, a TMB substrate (BD Bioscience, Franklin Lakes, N.J.) was added and reacted, and the absorbance was measured using a microplate spectrophotometer at A450 nm.
(§1) HRP-conjugated goat anti-human Fd antibodies were used as secondary antibodies.

[2] = target: T2, human serum albumin (HSA) (human, UniProt P02768 25-609); assay: BLI (Octet RED), antigen on AR2G biosensor
[3] = target: T3, recombinant human CD40L (rhCD40L-his) (human, UniProt P29965 113-261, limits assumed); assay: BLI (Octet RED), antigen on AR2G biosensor
T3 construct: Soluble recombinant form made by the applicant; also called rhCD40L antigen
T3 sequence (looked up): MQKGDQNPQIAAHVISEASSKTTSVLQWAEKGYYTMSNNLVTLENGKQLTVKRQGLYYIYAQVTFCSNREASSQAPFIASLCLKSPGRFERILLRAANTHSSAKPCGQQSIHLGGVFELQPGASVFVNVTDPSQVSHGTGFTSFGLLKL

[4] = target: T1, recombinant human TNF-α protein; assay: BLI (Octet RED), antigen on AR2G biosensor
[5] = target: T2, human serum albumin (HSA); assay: ELISA, HSA coated at 1 µg/ml, HRP goat anti-human Fd detection
Protocol: After blocking for 2 hours, washing was performed by repeatedly performing a process of completely removing the added buffer, adding each 300 μl of a buffer (PBS-T) containing 0.1% tween-20 PBS (pH 7.4), and then removing the buffer 3 times in total. After removing water remaining after the washing, the respective antibodies were serially diluted 10 folds at concentrations decreasing from 100 nM to 1.0×10⁻⁴ nM in a PBS pH 7.4 buffer (0.3% PBA) containing 0.3% bovine serum albumin and 0.1% tween-20, and each 100 μl of the diluted antibody samples were added to each well to be allowed to react at room temperature for 2 hours. After washing in the same manner as described above, HRP-conjugated goat anti-human Fd antibodies (Southern Biotechnology, Birmingham, Ala.) were diluted with a 0.3% PBA buffer in 1:4,000, and each 100 μl of the diluted antibody samples were added to each well to then be allowed to react at room temperature for 1 hour. To assess antigen-specific binding of the antibodies reacting after the washing, a TMB substrate (BD Bioscience, Franklin Lakes, N.J.) was added and reacted, and the absorbance was measured using a microplate spectrophotometer at A450 nm.
as §1

[6] = target: T3, recombinant human CD40L (rhCD40L-his); assay: ELISA, recombinant human CD40L coated at 1 µg/ml, HRP goat anti-human Fd detection
[7] = target: T1, recombinant human TNF-α protein; assay: cell-based or functional assay
[8] = target: T4, cell membrane CD40L expressed on D1.1 cells (UniProt P29965 1-261, limits assumed); assay: cell-based or functional assay
T4 sequence (looked up): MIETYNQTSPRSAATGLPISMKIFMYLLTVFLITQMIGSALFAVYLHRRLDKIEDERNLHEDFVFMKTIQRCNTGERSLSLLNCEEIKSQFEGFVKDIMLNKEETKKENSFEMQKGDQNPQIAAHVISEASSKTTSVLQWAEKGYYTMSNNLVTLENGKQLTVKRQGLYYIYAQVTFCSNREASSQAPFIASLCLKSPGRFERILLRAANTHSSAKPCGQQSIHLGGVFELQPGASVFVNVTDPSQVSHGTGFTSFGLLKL

[9] = target: T3, recombinant human CD40L (rhCD40L-his); assay: ELISA, CD40L coated at 1 µg/ml

T1 sequence (P01375 77-233 limits assumed): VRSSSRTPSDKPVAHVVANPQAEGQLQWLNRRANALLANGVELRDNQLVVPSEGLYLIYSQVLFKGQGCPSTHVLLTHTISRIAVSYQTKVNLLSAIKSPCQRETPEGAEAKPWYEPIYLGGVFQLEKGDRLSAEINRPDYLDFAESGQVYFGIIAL

| Binder | EC50 (read off the curve) [1] [nM] | Kd [2] [nM] | koff [2] [s⁻¹] | kon [2] [M⁻¹ s⁻¹] | Kd [3] [nM] | koff [3] [s⁻¹] | kon [3] [M⁻¹ s⁻¹] | Kd [4] [nM] | koff [4] [s⁻¹] | kon [4] [M⁻¹ s⁻¹] | EC50 (read off the curve) [5] [nM] | EC50 (read off the curve) [6] [nM] | IC50, SEAP response of HEK-Blue reporter cells + soluble TNF-α 10 ng/ml (FIG. 22B) [7] [nM] | IC50, inhibition of TNF-α mediated cytotoxicity on L929 mouse cells, with HSA (FIG. 21) [7] [nM] | percent inhibition, SEAP response of HEK-Blue reporter cells + D1.1 cells + soluble TNF-α together (FIG. 22C) [7] [%] | percent inhibition, SEAP response of HEK-Blue reporter cells + D1.1 cells + soluble TNF-α together (FIG. 22C) [8] [%] | fold lower binding capacity than anti-human CD40L IgG1 (ruplizumab) [9] [fold] | binding result [1] |
| --- | --- | --- | --- | --- | --- | --- | --- | --- | --- | --- | --- | --- | --- | --- | --- | --- | --- | --- |
| B1 | ~1 | 0.765 | 0.00042 | 549000 | 0.192 | 0.000113 | 590000 | 0.164 | 3.82e-05 | 230000 | ~0.5 | ~0.2 | 3.05 | 5.3 | 100 | 100 | ~1.5 | – |
| B2 | – | – | – | – | – | – | – | – | – | – | ~0.5 | – | – | – | – | – | – | no binding (tested: 100 nM) |
| B3 | – | – | – | – | – | – | – | – | – | – | ~0.3 | – | – | – | – | – | – | no binding (tested: 100 nM) |
